Experimental data from patent US5863889A, “ICAM-1/LFA-1 short-chain peptides and method of using same” (The University of Kansas, priority 1996, dated 1999).
“Also recorded” adds a separate entry of the source.

How the values were obtained:
Molt3 cells [1] = assay: Homotypic adhesion assay (MDHC-induced clumping of T-cells); assay type: cell-based, human; parameters: key to Homotypic Adhesion Amount: Any sample having a score of "+++" or "++++" is considered to have a significant ability to modulate T-cell binding interaction; Any sample having a score of "+++" or "++++" is considered to have a significant ability to modulate T-cell binding interaction; settings: 10 μM MDHC
Procedure: As before, the T-cells were Molt3 cells prepared in RPMI 1640 growth medium according to Example 2. An approximate 7 ml aliquot of the growth medium was centrifuged (Jouan Model GT422 at 1400 rpm for 6.5 minutes), and the supernatant fluid was decanted. The pellet was resuspended in the supernatant fluid at titer of about 1×10^6 cells/ml, with the excess supernatant fluid being retained for future resuspension of the peptides.
A 228 nmol quantity of the LJCRF-1 (Sequence ID No. 6) peptide described in Table 1 was diluted with the supernatant fluid to a 500 μl final volume, and filtered in microcentrifuge filter tubes (0.22 micron filter; 3500 rpm for 6 minutes). Serial dilution of the filtered peptide with supernatant fluid was conducted to yield five 125 μl peptide solutions to give respective concentrations of about 115 μM, 230 μM, 460 μM, 910 μM, and 1.82 mM. At each concentration, a 125 μl portion of the cell suspension was pipetted into each 125 μl portion of the peptide solutions to yield combined samples having a 250 μl volume. The 250 μl samples were seeded into individual wells in a 48-well tissue culture grade plate (from Costar of Cambridge, Md.) and incubated at 37° C. for 30 minutes. Each sample received 5 μl of 2,5-methyl dihydroxy cinnamate ("MDHC") for a 10 μM final concentration, and was subsequently incubated for about 10 hours at 37° C. MDHC induces intercellular clumping of human T-cells (Tibbetts, Butler, and Benedict, submitted) by activating the LFA/ICAM binding interaction between respective cells.
Pictures were taken of five random fields per sample using an Olympus photomicroscope having a 0.8 mm field at 400×magnification, and a 3.2 mm field of view at 100×magnification. The amount of clumping observed was quantified by determining the mean number of clumps per field ± a standard error.
FIGS. 5, 6, and 7 replicate photographs taken from exemplary peptide assays. FIG. 5 is a photograph of the control sample having no peptides and no MDHC added, from which essentially no clumping of cells is observed. […] Any sample having a score of "+++" or "++++" is considered to have a significant ability to modulate T-cell binding interaction. This is similar to results obtained by incubating similarly treated cells with antibody against either LFA or ICAM.
The homotypic adhesion assay assesses the actual ability of a candidate peptide to modulate the ability of T-cells to adhere with one another.

ICAM-1 = target: T1, ICAM-1 (Homo sapiens, UniProt P05362); assay: Conformation modulator assay: flow cytometry of FITC-labeled RB-1-88 binding to T-cells after pre-incubation with first peptide; assay type: cell-based; settings: first peptide 4550 μM
T1 construct: host or cells: Molt3 human T-cell leukemia line
T1 sequence (P05362 28-532): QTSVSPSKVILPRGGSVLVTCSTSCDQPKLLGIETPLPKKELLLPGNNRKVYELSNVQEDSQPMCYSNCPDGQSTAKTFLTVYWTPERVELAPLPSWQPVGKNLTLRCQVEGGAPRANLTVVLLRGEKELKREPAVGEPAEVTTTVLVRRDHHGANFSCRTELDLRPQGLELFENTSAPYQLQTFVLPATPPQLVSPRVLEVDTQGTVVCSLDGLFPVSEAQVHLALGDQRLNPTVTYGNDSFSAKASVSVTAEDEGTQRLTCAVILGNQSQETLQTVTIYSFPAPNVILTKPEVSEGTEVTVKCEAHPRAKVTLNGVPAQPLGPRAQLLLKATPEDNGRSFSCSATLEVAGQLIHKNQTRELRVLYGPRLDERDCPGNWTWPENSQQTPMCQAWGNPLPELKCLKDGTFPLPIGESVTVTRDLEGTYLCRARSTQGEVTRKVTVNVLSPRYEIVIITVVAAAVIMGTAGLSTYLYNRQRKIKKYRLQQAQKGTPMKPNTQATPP
Procedure: The antibody binding assay of Example 2 was twice repeated at a peptide concentration of 4550 μM, each time substituting a 455 nmol quantity of synthetic peptide selected from the group consisting of ICAM-based peptide SC-3-111 (Sequence ID No. 10) and LFA-based peptide LJCRF-4 (Sequence ID No. 16) in respective assays. Following incubation for 30 minutes at 37° C. after introduction of the first peptides, both incubated culture were supplemented by an additional quantity of FITC-labeled RB-1-88 (Sequence ID No. 19) peptide in a quantity sufficient to provide a 1.90 μM concentration in the cell/PBS solution.
Following addition of the RB-1-88 (Sequence ID No. 19) peptide, the mixture was incubated for 30 minutes at 4° C., washed three times with 500 μl PBS/BSA, resuspended in 500 μl PBS/BSA and immediately subjected to a flow cytometer analysis as before. Table 3 presents the results of this analysis, which are also depicted in FIGS. 8 (SC-3-111) and 9 (LJCRF-4).

Molt3 cells [2] = assay: Cell metabolic assay (MTT); assay type: cell-based
Procedure: After taking the photographs in Example 3 (and in some instances no photographs were taken), cell metabolic activity was assessed by an MTT assay. A 37.5 μl portion of MTT dye (purchased from SIGMA of St. Louis, Mo.), i.e., 3-[4,5-dimethyl thiazole-2yl]-2, 5- diphenyl tetrazolium bromide; thiazolyl blue) was added to each well, and incubated with the cells at 37° C. for about six hours. After incubation, a 250 μl quantity of a MTT solubilization solution (of a type that may be purchased from either Fischer Scientific of St. Louis, Mo. or BCD Labs of Lawrence, Kans.) was added to each well, and incubated with the cells at room temperature overnight. In the morning, the spectrophotometric absorption of each plate was determined at 570 nm in a microplate ELISA reader manufactured by Cambridge Technologies of Water-town, Mass., in order to assess cell viability as an indicator of potential peptide toxicity.

## SC-3-111: ICAM-1 based short-chain peptide, Sequence ID No. 10 (QTSVSPSKVI)
Molt3 cells [1]; peptide 230 μM
  Homotypic Adhesion Effect: Block
Molt3 cells [1]; peptide 460 μM
  Homotypic Adhesion Effect: Block
Molt3 cells [1]; peptide 910 μM
  Homotypic Adhesion Amount: ++++
  Homotypic Adhesion Effect: Block
Molt3 cells [1]; peptide 1820 μM
  Homotypic Adhesion Amount: +++
  Homotypic Adhesion Effect: Block
ICAM-1; then FITC-labeled RB-1-88 1.90 μM, shift vs control
  FACS Analysis (RB-1-88 binding): -8%
ICAM-1; then RB-1-88 1.90 μM, called probably not significant
  negative blocking shift of RB-1-88 binding (FIG. 8): 8%
ICAM-1; FIGS. 8, 9
  effect on binding of labeled peptide (RB-1-88 / LJCRF-6) to T-cell ICAM-1: substantially no T-cell binding enhancement; also recorded: no effect
Molt3 cells [2]; peptide 230 μM
  MTT % Viability: 93%
Molt3 cells [2]; peptide 460 μM
  MTT % Viability: 95%
Molt3 cells [2]; peptide 910 μM
  MTT % Viability: 89%
Molt3 cells [2]; peptide 1820 μM
  MTT % Viability: 69%
